Results on one substance are retold here after PMC3066550.

Holding throughout (assay): co-IP
The target of assay [1] is LANADBD LSQ912AAA (Kaposi's sarcoma-associated herpesvirus (KSHV; human herpesvirus 8)).
Assay [2] has as its target LANADBD YGL907AAA (Kaposi's sarcoma-associated herpesvirus (KSHV; human herpesvirus 8)).
In assay [3] the target is LANADBD R873A (Kaposi's sarcoma-associated herpesvirus (KSHV; human herpesvirus 8)).
In assay [4] the target is LANADBD KDT950AAA (Kaposi's sarcoma-associated herpesvirus (KSHV; human herpesvirus 8)).
Assay [5] addresses LANADBD WE963AA (Kaposi's sarcoma-associated herpesvirus (KSHV; human herpesvirus 8)).
Assay [6] deals with LANADBD HIF876AAA (Kaposi's sarcoma-associated herpesvirus (KSHV; human herpesvirus 8)).
Assay [7] concerns the target LANADBD SKK953AAA (Kaposi's sarcoma-associated herpesvirus (KSHV; human herpesvirus 8)).
Assay [8] deals with LANADBD K871A (Kaposi's sarcoma-associated herpesvirus (KSHV; human herpesvirus 8)).
Assay [9] deals with LANADBD YR879AA (Kaposi's sarcoma-associated herpesvirus (KSHV; human herpesvirus 8)).

With “wild-type KSHV LANA DNA-binding domain (LANADBD, aa 775-1003) (domain or fragment)”, the dimerization activity by IP, percent of wt in assay [1] is 248 % of wt; in [2] it was 73 % of wt; in [3] it was 135 % of wt; in assay [4], 74 % of wt; in assay [5], 29 % of wt; in [6] it was 127 % of wt. Besides, the results for the dimerization activity by IP, percent of wt in assay [7], in [8] and in assay [9] were 64 % of wt, 74 % of wt and 73 % of wt, respectively.
